Data reported in paper PMC5435892 (Genes & Development, 2017).

T1: Ulp2^825–844–Tof2^384–400 fusion (S. cerevisiae, UniProt P40537 825-844; Q02208 384-400)
T1 chain (looked up): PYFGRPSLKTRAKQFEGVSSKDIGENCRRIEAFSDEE

T2: SUMO-Ulp2^781–873 (S. cerevisiae, UniProt P40537 781-873)
T2 sequence (looked up): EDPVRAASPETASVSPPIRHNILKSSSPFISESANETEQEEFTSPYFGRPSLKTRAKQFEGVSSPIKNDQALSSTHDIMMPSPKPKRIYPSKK

T3: His6-Csm1 (full-length) (S. cerevisiae, UniProt P25651 1-190)
T3 sequence (looked up): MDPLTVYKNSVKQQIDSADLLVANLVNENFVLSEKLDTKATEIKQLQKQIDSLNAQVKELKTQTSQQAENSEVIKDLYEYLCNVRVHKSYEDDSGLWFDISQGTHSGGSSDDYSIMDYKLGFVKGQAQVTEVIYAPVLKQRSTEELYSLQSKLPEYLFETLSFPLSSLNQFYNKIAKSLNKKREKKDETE

T4: His6-Csm1^69–190 (S. cerevisiae, UniProt P25651 69-190)
T4 sequence (looked up): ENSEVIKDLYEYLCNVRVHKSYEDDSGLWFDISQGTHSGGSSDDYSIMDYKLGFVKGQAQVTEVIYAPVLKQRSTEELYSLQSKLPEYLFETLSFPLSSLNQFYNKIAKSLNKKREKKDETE


What was measured:
[1] = biological target: T1, Ulp2^825–844–Tof2^384–400 fusion; assay: co-expression in E. coli and co-purification
crystal structure = biological target: the molecule itself; assay: crystal structure
SUMO-Ulp2^781–873 = biological target: T2, SUMO-Ulp2^781–873; assay: SEC-MALS
His6-Csm1 (full-length) = biological target: T3, His6-Csm1 (full-length); assay: pull-down
His6-Csm1^69–190 = biological target: T4, His6-Csm1^69–190; assay: ITC

binding result (His6-Csm1 (full-length))	Ka (His6-Csm1^69–190)	dH (His6-Csm1^69–190)	stoichiometry N (His6-Csm1^69–190)	Binder	further results
binds	–	–	–	GST-Ulp2^781–873 F827A (domain or fragment, S. cerevisiae, UniProt P40537 781-873, looked up) EDPVRAASPETASVSPPIRHNILKSSSPFISESANETEQEEFTSPYAGRPSLKTRAKQFEGVSSPIKNDQALSSTHDIMMPSPKPKRIYPSKK	–
binds	–	–	–	GST-Ulp2^781–873 F839A (domain or fragment, S. cerevisiae, UniProt P40537 781-873, looked up) EDPVRAASPETASVSPPIRHNILKSSSPFISESANETEQEEFTSPYFGRPSLKTRAKQAEGVSSPIKNDQALSSTHDIMMPSPKPKRIYPSKK	–
–	55800 M⁻¹	-1.08 ± 0.0584 kcal/mol	0.46 ± 0.02	His6-GST-Ulp2^781–873 F839D (domain or fragment, S. cerevisiae, UniProt P40537 781-873, looked up) EDPVRAASPETASVSPPIRHNILKSSSPFISESANETEQEEFTSPYFGRPSLKTRAKQDEGVSSPIKNDQALSSTHDIMMPSPKPKRIYPSKK	–

Continued, binder first:

Binder	binding result (His6-Csm1 (full-length))	Ka (His6-Csm1^69–190)	dH (His6-Csm1^69–190)	stoichiometry N (His6-Csm1^69–190)	further results
Csm1^69–190 (untagged, coexpressed) (domain or fragment, S. cerevisiae, UniProt P25651 69-190, looked up) ENSEVIKDLYEYLCNVRVHKSYEDDSGLWFDISQGTHSGGSSDDYSIMDYKLGFVKGQAQVTEVIYAPVLKQRSTEELYSLQSKLPEYLFETLSFPLSSLNQFYNKIAKSLNKKREKKDETE	–	–	–	–	stoichiometry N [1]: 1 Csm1 per fusion chain (2:2)
Csm1^69–181 (untagged, coexpressed) (domain or fragment, S. cerevisiae, UniProt P25651 69-181, looked up) ENSEVIKDLYEYLCNVRVHKSYEDDSGLWFDISQGTHSGGSSDDYSIMDYKLGFVKGQAQVTEVIYAPVLKQRSTEELYSLQSKLPEYLFETLSFPLSSLNQFYNKIAKSLNK	–	–	–	–	stoichiometry N (crystal structure): 2; stoichiometry N (SUMO-Ulp2^781–873): 1 Csm1 per Ulp2 (2:2)
His6-GST-Ulp2^781–873 (domain or fragment, S. cerevisiae, UniProt P40537 781-873, looked up) EDPVRAASPETASVSPPIRHNILKSSSPFISESANETEQEEFTSPYFGRPSLKTRAKQFEGVSSPIKNDQALSSTHDIMMPSPKPKRIYPSKK	–	1.07e+06 M⁻¹	-8.613 ± 0.0517 kcal/mol	0.91 ± 0.004	–
